Laboratory results published in patent EP0368684A1.

Experiments:
[1] = target: hen egg white lysozyme (hen) (UniProt P00698); experiment: fluorescence quench titration with lysozyme
[2] = target: hen egg white lysozyme (hen) (UniProt P00698); experiment: fluorescence quench titration, VHLYS concentration from quantitative amino acid analysis; settings: scale: mole of lysozyme per mole of VHLYS domain
[3] = target: hen egg white lysozyme (hen) (UniProt P00698); experiment: calculated from the on-rate and off-rate of the stopped-flow analysis

Sequence of UniProt P00698 (P00698 19-147 limits assumed): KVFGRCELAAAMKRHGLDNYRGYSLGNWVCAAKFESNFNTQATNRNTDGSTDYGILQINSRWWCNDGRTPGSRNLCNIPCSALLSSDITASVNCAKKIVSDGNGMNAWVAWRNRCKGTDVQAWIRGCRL

Q: With “VHLYS domain (heavy chain variable domain of the D1.3 anti-lysozyme antibody)” as the substance, how does the Kd [1] read?
A: The Kd was 12 nM.

Q: And the stoichiometry (mole of lysozyme per mole of VHLYS domain) [2]?
A: Its stoichiometry (mole of lysozyme per mole of VHLYS domain) is 1.2.

Q: And the Kd [3]?
A: The Kd was 19 nM.
